The results in this text go back to US20180371086A1.

A value given as a limit tells only on which side of the number the result lay.

This experiment deals with HIV-1 Env gp120 of virus WITO, on infected cells (HIV-1). Nature of the experiment: cell-based or functional assay.

In the case of PGT-121 (antibody), the killing EC50; HIV-infected CEM-NKr-CCR5-LucR CD4 T cells; PBMC donor 4176; virus WITO was greater than 100 µg/mL and the killing EC50; HIV-infected CEM-NKr-CCR5-LucR CD4 T cells; PBMC donor 4288; virus WITO was greater than 100 µg/mL.
